This is an account of results in patent US20130096058A1 (AstraZeneca / MedImmune, published 2013).

Usually IC50 stands for the midpoint of a concentration-inhibition curve.

For assay [1], the target named is T1, cyno TRAIL R2-Fc (cynomolgus monkey (Macaca fascicularis)).
T1 construct: The text prints 'cyno TRAIL R2' and 'cyno TRAIL R2-Fc' for the same ELISAs; also called cynomolgus TRAIL R2
The assay is described as follows: competition ELISA: plate coated with F4 mod 1, cyno TRAIL R2-Fc, monomer titrated as competitor.

In assay [2] the target is T1, cyno TRAIL R2-Fc. The assay is described as follows: competition ELISA: plate coated with F4 mod 1, 0.75 nM cyno TRAIL R2-Fc, purified monomer titrated as competitor.
For assay [3], the target named is T1, cyno TRAIL R2-Fc. The assay is described as follows: competition ELISA: F4 mod 1 coated, cyno TRAIL R2-Fc. In general terms: In an ELISA, binding on a coated surface is turned into a signal by an enzyme label.
Assay [4] has as its target endogenous TRAIL R2 expressed on the cell surface (human, UniProt O14763 56-440). Put plainly: cell-based or functional assay.

B1: F4 mod 1 (designed binder)
chain: AIEVKDVTDTTALITWAKPWVDPPPLWGCELAYGIKDVPGDRTTIGLQQKHTAYSIGNLKPDTEYEVSLICFDPYGLKSRPAKETFTTGGGTLGHHHHHHHH
notes: F4 with a D to G mutation two amino acids before the DE loop
With B1, the IC50 with cyno TRAIL R2-Fc [1] and with cyno TRAIL R2-Fc [2] was 34 nM throughout. In addition, the “fold difference in binding between F4 mod 1 and F4 mod 12” value in the assay with cyno TRAIL R2-Fc [3] was not above 2 fold.

B2: F4 mod 12 (designed binder)
chain: SQIEVKDVTDTTALITWAKPWVDPPPLWGCELTYGIKDVPGDRTTIGLQQKHNQYSIGNLKPDTEYEVSLICFDPYGLKSRPAKETFTTGLGTLGHHHHHHHH
notes: Germline-engineered F4 mod 1
In turn, B2 came in with an IC50 with cyno TRAIL R2-Fc [1] of 50 nM. In addition, the “fold difference in binding between F4 mod 1 and F4 mod 12” value in the assay with cyno TRAIL R2-Fc [3] was not above 2 fold.

B3: A3 (1E11) (designed binder)
chain: SGGGGSAIEVKDVTDTTALITWAKPWVDPPPLWGCELAYGIKDVPGDRTTIDLQQKHTAYSIGNLKPDTEYEVSLICFDPYGAKSNPAKETFTTGGGGSGGGGSGGGGSAIEVKDVTDTTALITWAKPWVDPPPLWGCELAYGIKDVPGDRTTIDLQQKHTAYSIGNLKPDTEYEVSLICFDPYGAKSNPAKETFTTGGGGSGGGGSGGGGSAIEVKDVTDTTALITWAKPWVDPPPLWGCELAYGIKDVPGDRTTIDLQQKHTAYSIGNLKPDTEYEVSLICFDPYGAKSNPAKETFTTGGGGSGGGGSGGGGSAIEVKDVTDTTALITWAKPWVDPPPLWGCELAYGIKDVPGDRTTIDLQQKHTAYSIGNLKPDTEYEVSLICFDPYGAKSNPAKETFTTGGGGSGGGGSGTLGHHHHHHHH
Take B3: the “Maximum Inhibition % (H2122)” value in assay [4] came to 91%.
